Where “and” joins values, the source holds several entries; their conditions need not be identical. Equal entries are not always repeated. Blank lines part the entries; values can stand above or below the binder they belong to.
Legend:
[1] = target: T1, Human OX40 expressed on the surface of activated human CD4+OX40+ T cells (human, UniProt P43489 29-277); test: flow cytometry saturation binding on activated human CD4+ T cells; mean, n = 3
T1 construct: whole, on cells; Also used as the target for the functional assays on human PBMC (endogenous OX40); also called cell surface OX40; cell-surface expressed OX40
T1 sequence (looked up): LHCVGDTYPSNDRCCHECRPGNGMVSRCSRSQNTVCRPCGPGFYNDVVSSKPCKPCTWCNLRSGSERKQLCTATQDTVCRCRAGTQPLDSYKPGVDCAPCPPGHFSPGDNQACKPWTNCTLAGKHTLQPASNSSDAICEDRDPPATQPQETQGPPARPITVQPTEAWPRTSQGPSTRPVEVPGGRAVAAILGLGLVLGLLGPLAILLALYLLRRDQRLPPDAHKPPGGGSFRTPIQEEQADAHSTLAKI
Description: (§1) PBMC were isolated by separation on a Ficoll gradient and activated with 1 μg/mL PHA-L for 3 days at 37° C., 5% CO₂, 100% humidity. CD4⁺ T cells were isolated by negative selection using magnetic beads (CD4⁺ T cell Isolation Kit II for Human; Miltenyi Biotec). […] The cells were washed prior to analysis by flow cytometry using a FACScalibur (Becton Dickinson). Two titration curves were produced, one with A26Fab′-PEG and a second with gA33 Fab′-PEG as a non-specific binding control. Linear regression analysis was used to subtract non-specific binding and the specific binding curve thus generated was analysed by non-linear regression (Graphpad Prism®) to determine KD.

[2] = target: T1, Human OX40 expressed on the surface of …; test: cell-based or functional assay
[3] = target: T1, Human OX40 expressed on the surface of …; test: cell-based or functional assay; remark: listed apart in the source
[4] = target: T2, Human OX40 extracellular (185 aa) domain fused to the murine IgG2a Fc (232 aa) (Ancell No 513-020) (human; murine, UniProt P43489 29-214); test: BIAcore 3000 SPR; antibody captured, human OX40-mFc as analyte; average of 4 determinations
T2 construct: extracellular domain; Bought reagent; also called recombinant OX40; human extracellular domain OX40; not shown: murine IgG2a Fc, 232 aa
T2 sequence (looked up): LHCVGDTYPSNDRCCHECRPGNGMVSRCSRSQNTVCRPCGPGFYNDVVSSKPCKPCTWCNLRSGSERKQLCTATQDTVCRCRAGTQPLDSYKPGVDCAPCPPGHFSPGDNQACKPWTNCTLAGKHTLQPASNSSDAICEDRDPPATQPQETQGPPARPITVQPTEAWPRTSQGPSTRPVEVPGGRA
Description: (§2) BIA (Biamolecular Interaction Analysis) was performed using a BIAcore 3000 (BIAcore AB). Affinipure F(ab′)₂ Fragment goat anti-human IgG, F(ab′)₂ fragment specific (Jackson ImmunoResearch) was immobilised on a CM5 Sensor Chip via amine coupling chemistry to a capture level of ≈4000 response units (RUs). HBS-EP buffer (10 mM HEPES pH 7.4, 0.15 M NaCl, 3 mM EDTA, 0.005% Surfactant P20, BIAcore AB) was used as the running buffer with a flow rate of 10 μl/min. A 10 μl injection of Fab′ at 0.5 μg/mL or Fab′-PEG at 50 μg/mL was used for capture by the immobilised anti-human IgG-F(ab′)₂. Human OX40 was titrated over the captured antibody at various concentrations (25 nM to 0.78 nM) at a flow rate of 30 μL/min. The surface was regenerated by a 10 μL injection of 40 mM HCl, followed by a 5 μL injection of 5 mM NaOH at a flowrate of 10 μL/min.
(§3) Background subtraction binding curves were analysed using the BlAevaluation software (version 3.2) following standard procedures. Kinetic parameters were determined from the fitting algorithm.

[5] = target: Cynomolgus OX40 on activated cynomolgus CD4+ T cells (cynomolgus) (UniProt P79185); test: flow cytometry saturation binding on activated cynomolgus CD4+ T cells; n = 3
[6] = target: T2, Human OX40 extracellular (185 aa) …; test: BIAcore 3000 SPR; antibody captured by immobilised anti-human F(ab′)2, human OX40-mFc titrated as analyte
Description: as §2, §3

[7] = target: T1, Human OX40 expressed on the surface of …; test: flow cytometry saturation binding of FITC labelled antibody on activated human CD4+OX40+ T cells; one of 3 donors
Description: Binding of FITC labelled A26Fab′-PEG to activated human CD4⁺OX40⁺ T cells was measured by flow cytometry across a 4-log concentration range.
as §1

[8] = target: Cynomolgus OX40 on activated cynomolgus CD4+ T cells (cynomolgus) (UniProt P79185); test: flow cytometry equilibrium binding on activated CD4+ T cells, against human cells as reference
[9] = target: T3, Rhesus OX40 on activated rhesus CD4+ T cells (rhesus, UniProt P16003 26-458); test: flow cytometry saturation binding on activated rhesus CD4+ T cells; n = 1
T3 sequence (P16003 26-458): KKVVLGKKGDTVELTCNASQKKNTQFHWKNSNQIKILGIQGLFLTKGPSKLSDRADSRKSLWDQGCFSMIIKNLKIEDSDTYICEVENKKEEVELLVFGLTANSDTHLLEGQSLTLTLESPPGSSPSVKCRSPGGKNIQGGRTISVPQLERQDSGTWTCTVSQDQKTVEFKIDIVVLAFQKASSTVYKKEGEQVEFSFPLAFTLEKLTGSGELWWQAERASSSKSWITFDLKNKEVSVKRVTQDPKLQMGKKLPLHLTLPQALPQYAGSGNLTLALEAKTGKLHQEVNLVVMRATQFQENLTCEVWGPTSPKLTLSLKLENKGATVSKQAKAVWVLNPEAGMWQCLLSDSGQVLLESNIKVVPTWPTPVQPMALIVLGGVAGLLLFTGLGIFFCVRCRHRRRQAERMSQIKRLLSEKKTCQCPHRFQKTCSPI

[10] = target: T1, Human OX40 expressed on the surface of …; test: flow cytometry ligand blocking assay on activated human CD4+OX40+ T cells; competitor biotinylated OX40L (CD252 muCD8) at 2 µg/ml
Description: The capacity of A26Fab′-PEG to block the interaction between cell-surface expressed OX40 and recombinant OX40L was measured using a flow cytometry-based ligand blocking assay. Briefly, activated human CD4⁺OX40⁺ T cells were pre-incubated with a titration of A26Fab′-PEG. Recombinant OX40L was subsequently added to the cells and allowed to bind in the presence of A26 Fab′-PEG. The proportion of OX40L bound was then detected by flow cytometry using a labelled secondary reagent.
Methods: Inhibition of OX40L binding to human activated CD4⁺OX40⁺ T Cells by A26Fab′-PEG. PBMC were isolated by separation on a Ficoll gradient and activated with 1 μg/mL PHA-L for 3 days at 37° C., 5% CO₂, 100% humidity. 2.5×10⁵ cells were incubated in the presence of antibody (final concentration range 20 μg/mL-0.0003 μg/mL (229 nM-0.0035 nM)) for 10 minutes on ice. OX40L (biotinylated CD252 muCD8, Ancell) was added at a final concentration of 2 μg/ml and incubated for a further 30 minutes on ice. Cells were washed and OX40L binding detected by incubation with PE-labelled streptavadin (Jackson Immunoresearch) prior to analysis by flow cytometry using a FACScalibur (Becton Dickinson). gA33 Fab′-PEG was used as a non-specific control. The inhibition curve was analysed by non-linear regression (Graphpad Prism®) to determine the IC₅₀. The data shown is from one representative donor of two.

[11] = target: T3, Rhesus OX40 on activated rhesus CD4+ T …; test: flow cytometry equilibrium binding on activated CD4+ T cells, against human cells as reference
[12] = target: T2, Human OX40 extracellular (185 aa) …; test: BIAcore 3000 SPR; antibody captured, human OX40-mFc as analyte; average of 5 determinations
Description: as §2, §3

Kd [1]: 1.11 nM
House Dust Mite - Inhibition of IL-13 production (n = 3), Mean IC50 (nM) [2]: 1.23 nM
House Dust Mite - Inhibition of IL-13 production (n = 3), Mean IC50 (µg/ml) [2]: 0.107 µg/mL
Mixed Lymphocyte Reaction - Inhibition of Proliferation (n = 10), Mean IC50 (nM) [2]: 2.15 nM
Mixed Lymphocyte Reaction - Inhibition of Proliferation (n = 10), Mean IC50 (µg/ml) [2]: 0.188 µg/mL
Kd [4]: 0.0313 nM
koff [4]: 1.3e-05 s⁻¹
kon [4]: 476000 M⁻¹ s⁻¹
Kd [5]: 1.86 nM
Kd [6]: 0.0137 to 0.0503 nM
Kd [7]: 1.19 nM and 1.07 nM and 1.05 nM
fold drop off in affinity as compared to human [8]: < 2 fold
Kd [9]: 1.2 nM
IC50 [10]: 4.1 nM
fold drop off in affinity as compared to human [11]: < 2 fold
B1: A26Fab′-PEG (PEGylated A26 Fab′ fragment) (Fab, V domains shown)
VH: EVQLVESGGGLVQPGGSLRLSCAASGFTFTNYGIHWIRQAPGKGLEWVASISPSGGLTYYRDSVKGRFTISRDDAKNSPYLQMNSLRAEDTAVYYCATGGEGIFDYWGQGTLVTVSS
VL: DIQMTQSPSSLSASVGDRVTITCRATQSIYNALAWYQQKPGKAPKLLIYNANTLHTGVPSRFSASGSGTDSTLTISSLQPEDFATYYCQQYYDYPLTFGGGTKVEIKR
modifications: Cys 226 (linear numbering of SEQ ID NO:15): lysyl-maleimide group, each amino group of the lysyl residue linked to a methoxypoly(ethyleneglycol) of about 20,000 Da (total PEG about 40,000 Da)
notes: also called A26Fab′-PEGylated
Tetanus Toxoid - Inhibition of Proliferation (n = 2), Mean IC50 (nM) [2]: 0.845 nM
Tetanus Toxoid - Inhibition of Proliferation (n = 2), Mean IC50 (µg/ml) [2]: 0.0733 µg/mL
IC50 for inhibition of proliferation, Tetanus Toxoid response, donor 1 [3]: 0.58 nM and 0.051 µg/mL
IC50 for inhibition of proliferation, Tetanus Toxoid response, donor 2 [3]: 1.11 nM and 0.097 µg/mL

Kd [12]: 0.0296 nM
koff [12]: 1.29e-05 s⁻¹
kon [12]: 486000 M⁻¹ s⁻¹
Kd [6]: 0.019 to 0.0454 nM
B2: A26 (humanised CA044-00026, graft gL8gH2) Fab′ fragment, unPEGylated (Fab, V domains shown)
VH: EVQLVESGGGLVQPGGSLRLSCAASGFTFTNYGIHWIRQAPGKGLEWVASISPSGGLTYYRDSVKGRFTISRDDAKNSPYLQMNSLRAEDTAVYYCATGGEGIFDYWGQGTLVTVSS
VL: DIQMTQSPSSLSASVGDRVTITCRATQSIYNALAWYQQKPGKAPKLLIYNANTLHTGVPSRFSASGSGTDSTLTISSLQPEDFATYYCQQYYDYPLTFGGGTKVEIKR
notes: Produced in E. coli; the OmpA signal peptide is cleaved off; also called unPEGylated humanised Fab fragment A26

Source: patent publication US20100254978A1 (UCB, published 2010)
